Results on 2 molecules are retold here after patent US20090252683A1 (Amgen, published 2009).

In assay [1] the target is T1, human CD3 antigen on HPB-ALL cells or human T cells (human, UniProt P07766 22-126; P09693 23-111; P04234 22-103).
T1 construct: natural CD3 complex on cells (HPB-ALL, human PBMC T cells); also called human CD3 complex
The assay can be described thus: FACS, FITC-conjugated antibody on HPB-ALL cells. Here is the method:
Binding of an Ig comprising SEQ ID NOs. 2 and 4, an Ig comprising SEQ ID NOs. 6 and 8 and mAb FN18 to the cynomolgus CD3 antigen on cynomolgus PBMC and to the human CD3 antigen on HPB-ALL cells (DSMZ No. ACC 483) was tested using an FACS assay. For that purpose, 2.5×10⁵ cells were incubated with the FITC-conjugated Ig comprising SEQ ID NOs. 6 and 8 and the FITC-conjugated Ig comprising SEQ ID NOs. 2 and 4 diluted 1:25 in 50 μl PBS with 2% FCS, respectively. The incubation with the FITC-conjugated mAb FN18 antibody (Biosource International) was performed in 50 μl of undiluted antibody. The samples were measured on a FACSscan (BD biosciences, Heidelberg, FRG). Strong antigen binding on human as well as on cynomolgus cells was detected for the Ig comprising SEQ ID NOs. 2 and 4. For the Ig comprising SEQ ID NOs. 6 and 8, strong binding to human cells but weaker binding to cynomolgus cells was observed. For FN18, strong binding to cynomolgus cells could be observed whereas no binding to human cells could be detected.
(In general: A flow cytometer gives signals particle by particle.)

Assay [2] has as its target cynomolgus CD3 antigen on cynomolgus PBMC / macaque T cells (Macaca fascicularis (cynomolgus), UniProt Q95LI5 22-117; Q95LI7 23-110; Q95LI8 22-103). The assay can be described thus: cell-based or functional assay.
The target in assay [3] is T2, human EpCAM antigen on Kato III cells or human EpCAM transfected CHO cells (human, UniProt P16422 24-265).
T2 sequence: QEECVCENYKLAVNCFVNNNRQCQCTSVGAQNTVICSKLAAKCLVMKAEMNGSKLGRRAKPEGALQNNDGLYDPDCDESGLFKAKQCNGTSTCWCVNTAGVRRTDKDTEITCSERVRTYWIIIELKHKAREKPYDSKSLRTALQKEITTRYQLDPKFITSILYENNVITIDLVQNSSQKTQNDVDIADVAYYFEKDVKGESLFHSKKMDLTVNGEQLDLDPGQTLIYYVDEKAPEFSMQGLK
The assay can be described thus: cell-based or functional assay.

For assay [4], the target named is T3, cynomolgus EpCAM antigen on transfected CHO cells (cynomolgus, UniProt Q1WER1 24-265 (rhesus entry)).
T3 construct: 48 holds the extracellular portion
T3 sequence: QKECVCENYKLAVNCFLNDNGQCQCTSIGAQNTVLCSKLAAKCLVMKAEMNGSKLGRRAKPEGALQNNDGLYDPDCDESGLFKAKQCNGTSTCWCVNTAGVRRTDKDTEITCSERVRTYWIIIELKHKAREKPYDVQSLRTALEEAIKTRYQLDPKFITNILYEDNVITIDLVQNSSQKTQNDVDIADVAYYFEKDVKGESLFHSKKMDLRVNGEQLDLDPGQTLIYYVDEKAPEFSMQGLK
As to the kind of experiment: FACS on cynomolgus EpCAM transfected CHO cells, anti-His detection. The text has this: FIG. 8: FACS assay for binding of 2G8LH×SEQ ID NO. 12, 2G8LH×SEQ ID NO. 10, 2G8LH×SEQ ID NO. 16, 2G8LH×SEQ ID NO. 14, 2G8HL×SEQ ID NO. 12, 2G8HL×SEQ ID NO. 10, 2G8HL×SEQ ID NO. 16 and 2G8HL×SEQ ID NO. 14 on Kato III (FIG. 8A) cells or cynomolgus EpCAM transfected CHO cells (FIG. 8B) and HPB-ALL cells. Antigen binding was clearly detectable for the anti EpCAM specificities as well as for the anti CD3 specificities. As a negative control for binding to cynomolgus EpCAM, the 5-10LH×SEQ ID NO.
Binding of the bifunctional constructs from cell culture supernatants or binding of purified bifunctional constructs to the human EpCAM antigen on Kato III cells or cynomolgus EpCAM transfected CHO cells and to the CD3 antigen on HPB-ALL cells was tested using an FACS assay. For that purpose 2.5×10⁵ cells were incubated with 50 μl supernatant or with 5 μg/ml of the purified constructs in 50 μl PBS with 2% FCS. The binding of the constructs was detected with an anti-His antibody (Penta-His Antibody, BSA free, obtained from Qiagen GmbH, Hilden, FRG) at 2 μg/ml in 50 μl PBS with 2% FCS. […] The samples were measured on a FACSscan (BD biosciences, Heidelberg, FRG). Antigen binding was clearly detectable for the anti EpCAM specificities as well as for the anti CD3 specificities (see FIG. 8). As a negative control for binding to cynomolgus EpCAM, the 5-10LH×SEQ ID NO. […] The 5-10LH part only binds to human EpCAM.

T1 sequence (P07766 22-126 limits assumed, chain 1 of 3): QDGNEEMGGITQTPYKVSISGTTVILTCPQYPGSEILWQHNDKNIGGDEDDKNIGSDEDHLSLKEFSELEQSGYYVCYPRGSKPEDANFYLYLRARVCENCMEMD
T1 sequence (P09693 23-111 limits assumed, chain 2 of 3): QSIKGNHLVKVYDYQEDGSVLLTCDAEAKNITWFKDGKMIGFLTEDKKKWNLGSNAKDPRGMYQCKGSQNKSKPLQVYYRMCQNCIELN
T1 sequence (P04234 22-103 limits assumed, chain 3 of 3): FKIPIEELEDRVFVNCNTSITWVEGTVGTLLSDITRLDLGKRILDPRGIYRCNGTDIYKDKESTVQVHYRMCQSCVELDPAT
Chain of cynomolgus CD3 antigen on cynomolgus PBMC / macaque T cells (Q95LI5 22-117, chain 1 of 3): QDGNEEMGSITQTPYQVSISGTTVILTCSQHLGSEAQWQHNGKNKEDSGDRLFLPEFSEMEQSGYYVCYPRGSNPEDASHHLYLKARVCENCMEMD
Chain of cynomolgus CD3 antigen on cynomolgus PBMC / macaque T cells (Q95LI7 23-110, chain 2 of 3): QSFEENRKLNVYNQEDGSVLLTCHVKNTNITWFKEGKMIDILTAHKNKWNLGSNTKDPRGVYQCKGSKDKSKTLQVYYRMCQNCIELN
Chain of cynomolgus CD3 antigen on cynomolgus PBMC / macaque T cells (Q95LI8 22-103, chain 3 of 3): as the sequence (P04234 22-103 limits assumed, chain 3 of 3) above, with I5V, N15K, I20V, S32T, D33N, I34N, T64A, S74N counted along it

B1: monoclonal antibody (mAb) FN-18 (antibody, V domains shown)
VH: QVQLQQSEAELARPGASVKMSCKASGYTFTDYTIHWLKQRPGQGLDWIGYFNPSSESTEYNRKFKDRTILTADRSSTTAYMQLSSLTSEDSAVYYCSRKGEKLLGNRYWYFDVWGAGTSVTVSS
VL: DIVMSQSPSSLAVSVGEKVTMSCKSSQSLLYSSNQKNYLAWYQQKPGQSPKLLINWASTRESGVPDRFTGSGSRTDFTLTISSVKAEDLAVYFCQQFYSYPPTFGGGTKLEIK
notes: tested as bought FITC-conjugated antibody (Biosource International)
As to B1, the binding result in assay [1] is given as “no binding (tested: 50 µl of undiluted antibody)”.

B2: 5-10LH×SEQ ID NO. 10 bispecific single chain antibody (bispecific antibody)
chain: ELVMTQSPSSLTVTAGEKVTMSCKSSQSLLNSGNQKNYLTWYQQKPGQPPKLLIYWASTRESGVPDRFTGSGSGTDFTLTISSVQAEDLAVYYCQNDYSYPLTFGAGTKLEIKGGGGSGGGGSGGGGSEVQLLEQSGAELVRPGTSVKISCKASGYAFTNYWLGWVKQRPGHGLEWIGDIFPGSGNIHYNEKFKGKATLTADKSSSTAYMQLSSLTFEDSAVYFCARLRNWDEPMDYWGQGTTVTVSSGGGGSEVKLLESGGGLVQPKGSLKLSCAASGFTFNTYAMNWVRQAPGKGLEWVARIRSKYNNYATYYADSVKDRFTISRDDSQSILYLQMNNLKTEDTAMYYCVRHGNFGNSYVSWFAYWGQGTLVTVSAGGGGSGGGGSGGGGSQAVVTQESALTTSPGETVTLTCRSSTGAVTTSNYANWVQEKPDHLFTGLIGGTNKRAPGVPARFSGSLIGDKAALTITGAQTEDEAIYFCALWYSNLWVFGGGTKLTVLHHHHHH
For the molecule B2, in assay [2], the “EC50 (half maximal killing), FACS-based cytotoxicity, Kato III target cells, cynomolgus PBMC effector cells” value was 0.052 ng/mL. Besides, the “EC50 (half maximal killing), FACS-based cytotoxicity, Kato III target cells, human PBMC effector cells” value in assay [3] is 0.0058 ng/mL. In addition, the binding result in assay [4] is “no binding (tested: 50 µl supernatant or 5 µg/ml)”.
